One molecule from publication PMC2650222 (Biochemistry, 2008) can be followed below.

The experiment has as its target T1, Pyrococcus furiosus RPP29 (Pyrococcus furiosus, UniProt Q8U007 1-127).
T1 sequence (looked up): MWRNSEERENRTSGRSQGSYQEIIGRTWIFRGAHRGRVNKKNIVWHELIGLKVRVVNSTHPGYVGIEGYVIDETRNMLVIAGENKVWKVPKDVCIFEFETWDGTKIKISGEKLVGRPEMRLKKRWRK
Kind of experiment: NMR titration.

B1: Pyrococcus furiosus RPP21 (natural protein)
chain: AKYNEKKEKKRIAKERIDILFSLAERVFPYSPELAKRYVELALLVQQKAKVKIPRKWKRRYCKKCHAFLVPGINARVRLRQKRMPHIVVKCLECGHIMRYPYIKEIKKRRKEKMEYGGLVPR
modifications: 15N-labelled (uniform isotope labelling)
Take B1: the binding result was “binds”.
